Reference: the supplement of paper PMC10567573

B1: TBX5 (parent)
chain: FHEVGTEMIITKAGRRMFPSYKVK

Variants of: B1
Assay: protein stability index of a GFP-peptide fusion (GPS, HEK-293T) (PSI 1-6); higher = more stable
Details: c terminus: a fixed tail appended
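Further: lentivirally expressed fusions sorted by FACS into six bins by GFP to DsRed ratio, PSI derived from sequencing read proportions per bin multiplied by bin number.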

Protein stability index, by site and new letter:
K12: L 2.81; F 2.76; P 2.12; I 1.6; Q 1.73; Y 2.91; G 2.1; T 1.78; D 2.57; H 1.8; V 2.68; A 2.52; N 2.1; R 2.02; S 2.51; C 1.31; E 1.83
T6: Q 2.2; M 1.37; P 1.3; Y 1.56; V 2.07; S 2.21; F 2.76; D 2.25; H 2.01; C 1.52; A 1.93; E 3.65; W 2.13; K 2.23; G 2.9; N 1.68; R 1.62; L 3.1
E3: S 2.8; A 1.87; V 2.58; H 1.06; C 2.54; Q 1.8; T 1.03; K 1.45; D 1.26; P 2.42; N 1.03; R 2.58; F 2.39; I 4.17
I10: W 1.76; Q 2.45; D 3.5; P 2.44; H 2.25; F 3.28; E 2.66; S 3.26; L 2.21; V 2.14; Y 1.48; A 1.68; N 2.03; C 2.41; R 2.21; T 1.91; K 2.84; M 1.63
G5: C 2.02; P 2.05; L 1.92; Q 2.13; A 2.44; K 1.88; S 2.76; N 1.5; I 3.47; H 1.92; V 1.23; T 1.92; D 2.58; Y 1.49; M 1.69
M8: K 2.68; W 2.07; R 1.79; Y 1.87; L 1.66; G 1.93; H 2.33; F 1.59; A 2.27; E 3.03; P 2.08; V 1.43; C 2.09; D 3.29; Q 2.06; I 1.33; N 2.38; T 2.2; S 2.34
A13: T 1.68; G 1.84; R 2.65; P 1.93; D 2.57; S 1.87; E 2.68; L 2.61; N 2.27; V 2.02; C 2.03; F 1.97; M 1.3; K 2.44; H 2.11; W 1.93; Q 2.65
I9: F 2.52; L 1.79; C 1.5; D 2.38; T 2.84; S 2.29; E 3.06; M 2.19; Q 2.5; N 2.46; G 2; A 2.38; R 2.68; P 2.75; Y 1.8; K 2.48; V 3.05
V4: L 2.09; F 2.65; T 2.34; G 2.32; K 1.98; N 2.05; H 1.85; C 2; E 2.23; M 1.6; R 1.42; A 1.97; P 1.86; S 1.95; D 2.48; I 2.41; Y 2.46; Q 1.96
E7: N 1.88; P 1.71; M 1.49; G 2.98; A 2.82; Q 1.81; T 1.87; C 2.07; H 1.55; K 1.92; D 1.81; V 1.84; L 1.93; S 1.66
